Laboratory results: publication PMC6695498

Columns and labels:
[1] = molecular target: Arkadia (RING finger protein 111, RNF111), wild type, expressed in S. cerevisiae (human) (UniProt Q6ZNA4)
FLAG-SUMO2-GFP-COMP-HA = assay: native gel or EMSA; native PAGE of the GFP-COMP substrates expressed in S. cerevisiae
SUMO1-GFP-COMP-HA = assay: as above
[2] = molecular target: SUMO-binding domain of Arkadia (residues 285–416) with mutations in the SOB motif (SOB*) (murine) (UniProt Q99ML9); assay: ITC
SUMO-binding domain of Arkadia (residues 285–416) with mutations in the SOB motif (SOB*) (murine), sequence (Q99ML9 285-416, change not shown): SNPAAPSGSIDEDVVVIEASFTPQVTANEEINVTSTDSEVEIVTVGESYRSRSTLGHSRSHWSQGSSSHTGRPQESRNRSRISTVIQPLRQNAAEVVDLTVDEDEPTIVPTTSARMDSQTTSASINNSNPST

Arkadia (RING finger protein 111, RNF111), wild type, expressed in S. cerevisiae (human), sequence (Q6ZNA4 whole entry): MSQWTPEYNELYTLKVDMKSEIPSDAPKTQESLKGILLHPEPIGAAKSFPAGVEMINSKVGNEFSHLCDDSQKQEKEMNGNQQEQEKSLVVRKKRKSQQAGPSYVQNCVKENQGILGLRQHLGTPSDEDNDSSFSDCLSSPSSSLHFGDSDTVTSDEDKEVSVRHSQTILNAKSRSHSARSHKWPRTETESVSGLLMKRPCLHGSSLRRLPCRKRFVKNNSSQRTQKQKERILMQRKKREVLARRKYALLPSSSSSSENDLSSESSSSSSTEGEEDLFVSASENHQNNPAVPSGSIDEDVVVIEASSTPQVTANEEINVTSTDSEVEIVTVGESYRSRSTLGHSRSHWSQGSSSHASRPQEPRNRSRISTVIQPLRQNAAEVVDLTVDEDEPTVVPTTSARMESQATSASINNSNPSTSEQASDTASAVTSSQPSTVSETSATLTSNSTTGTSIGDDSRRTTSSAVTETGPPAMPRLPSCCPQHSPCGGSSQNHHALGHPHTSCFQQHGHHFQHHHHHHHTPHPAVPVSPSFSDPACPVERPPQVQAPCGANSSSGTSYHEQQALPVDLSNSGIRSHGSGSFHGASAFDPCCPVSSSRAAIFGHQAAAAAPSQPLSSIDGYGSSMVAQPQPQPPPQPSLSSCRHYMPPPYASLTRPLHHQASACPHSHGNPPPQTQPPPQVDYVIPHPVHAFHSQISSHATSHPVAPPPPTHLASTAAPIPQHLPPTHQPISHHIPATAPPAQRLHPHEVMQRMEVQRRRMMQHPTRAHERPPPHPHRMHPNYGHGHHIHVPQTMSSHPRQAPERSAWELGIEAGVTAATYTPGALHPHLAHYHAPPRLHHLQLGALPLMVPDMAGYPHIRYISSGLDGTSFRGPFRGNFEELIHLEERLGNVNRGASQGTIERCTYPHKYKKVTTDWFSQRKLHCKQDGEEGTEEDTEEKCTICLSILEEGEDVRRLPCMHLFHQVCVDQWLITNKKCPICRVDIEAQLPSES

**Q.** With “FLAG-4xSUMO2-GFP-HA (from UniProt P61956 12-95; P61956 12-95; P61956 12-95)” as the substance, how does the steady-state level of the reporter in S. cerevisiae co-expressing Arkadia, against the vector control (quantitative anti-HA Western blot) [1] read?
**A.** 60%

**Q.** For FLAG-SUMO1-3xSUMO2-GFP-HA, which steady-state level of the reporter in S. cerevisiae co-expressing Arkadia, against the vector control (quantitative anti-HA Western blot) [1] is on record?
**A.** 25%

**Q.** With FLAG-SUMO2-GFP-COMP-HA as the substance, how does the stoichiometry N (FLAG-SUMO2-GFP-COMP-HA) read?
**A.** 5

**Q.** SUMO1-GFP-COMP-HA was tested. Which stoichiometry N (SUMO1-GFP-COMP-HA) did it give?
**A.** 5

**Q.** For “linear SUMO1-capped SUMO2 trimer (SUMO1-ΔN15 followed by two SUMO2-ΔN11) (from UniProt P63165 16-101; P61956 12-95; P61956 12-95)”, which Kd [2] is on record?
**A.** 12.4 µM

**Q.** How did the Kd [2] turn out when “linear SUMO2 trimer (tri-SUMO2-ΔN11) (from UniProt P61956 12-95; P61956 12-95; P61956 12-95)” was run?
**A.** 11.1 µM
